# Reference: article PMC9450512
# “And” between values parts separate entries of the source, which are not always exact repeats. Equal entries are not always repeated.
# Target: Catalytic Domain of Human HDAC7 (cdHDAC7), biotinylated (human)
# Assay: BLI
substance,measurement,value
"Ac-Leu-Gly-Lys(Ac)-NH2 (LGKAc), acetylated peptide derived from histone 4 lysine 12",Kd,720 nM and 1000 nM
